Experiments:
[1] = target: T1, CD3 on Jurkat cells (UniProt P07766 23-207; P04234 22-171; P09693 23-182); assay: FACS on Jurkat cells
T1 construct: whole, on cells; On the cell, CD3 stands in the TCR-CD3 complex; also called cluster of differentiation 3
Protocol: (§1) The binding affinities of the generated humanized Fab-scFv-Fab bispecific antibodies were determined by FACS analysis. […] (a) Jurkat cells were washed by Staining Buffer (PBS+1% BSA) in round bottom 96-well plate. [0833] (b) Antibody dilutions and cells were added to each well, incubated at 4 degrees for 1 hour. [0834] (c) Cells were spined down at 300 g for 3 minutes, and the supernatants were discarded. [0835] (d) Cells were washed with Staining Buffer. […] (e) Step (d) was repeated and the cells were incubated for 0.5 hours at 4 degrees with secondary antibody in Staining Buffer. [0837] (f) After incubation, step (d)-(e) were repeated. […] (g) Staining Buffer was added and fluorescence signals were recorded by flow cytometry.
The binding affinities of the generated humanized Fab-scFv-Fab bispecific antibodies were determined by FACS analysis. The ATG-Bis-40E9 described in Example 1 was used as positive control and hIgG1 isotype was used as negative control. The protocol for FACS analysis is described in Example 3.2 above.

[2] = target: T2, GPRC5D on MM.1S cells (human, UniProt Q9NZD1 1-345); assay: cell-based or functional assay
T2 sequence (Q9NZD1 whole entry): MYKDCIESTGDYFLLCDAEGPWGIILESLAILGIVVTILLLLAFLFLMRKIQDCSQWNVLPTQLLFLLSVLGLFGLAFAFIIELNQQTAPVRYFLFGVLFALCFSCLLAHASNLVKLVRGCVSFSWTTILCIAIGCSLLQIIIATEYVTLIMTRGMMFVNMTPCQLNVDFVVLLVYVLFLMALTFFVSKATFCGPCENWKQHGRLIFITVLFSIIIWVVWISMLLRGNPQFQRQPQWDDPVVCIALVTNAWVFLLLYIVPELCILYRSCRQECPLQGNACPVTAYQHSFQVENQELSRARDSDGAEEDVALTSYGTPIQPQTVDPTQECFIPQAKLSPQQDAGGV

[3] = target: T2, GPRC5D on MM.1S cells; assay: FACS on MM.1S cells
Protocol: as §1
The binding affinities of the generated humanized Fab-scFv-Fab bispecific antibodies were determined by FACS analysis. The ATG-Bis-40E9 was used as positive control and hIgG1 isotype was used as negative control. The protocol for FACS analysis is identical to that described in Example 3.2, except that MM.1S cells were used in this example.

[4] = target: T2, GPRC5D on MM.1S cells; assay: cell-based or functional assay; remark: listed apart in the source

T1 sequence (P07766 23-207, chain 1 of 3): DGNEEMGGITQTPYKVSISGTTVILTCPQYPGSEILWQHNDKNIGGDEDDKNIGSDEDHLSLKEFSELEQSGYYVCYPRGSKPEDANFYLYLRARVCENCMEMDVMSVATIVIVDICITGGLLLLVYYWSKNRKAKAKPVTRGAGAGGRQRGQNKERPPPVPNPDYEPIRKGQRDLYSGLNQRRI
T1 sequence (P04234 22-171, chain 2 of 3): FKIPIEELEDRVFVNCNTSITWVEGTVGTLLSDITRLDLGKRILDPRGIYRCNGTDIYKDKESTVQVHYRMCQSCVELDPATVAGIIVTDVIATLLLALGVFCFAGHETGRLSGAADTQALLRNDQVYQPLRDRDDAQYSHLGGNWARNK
T1 sequence (P09693 23-182, chain 3 of 3): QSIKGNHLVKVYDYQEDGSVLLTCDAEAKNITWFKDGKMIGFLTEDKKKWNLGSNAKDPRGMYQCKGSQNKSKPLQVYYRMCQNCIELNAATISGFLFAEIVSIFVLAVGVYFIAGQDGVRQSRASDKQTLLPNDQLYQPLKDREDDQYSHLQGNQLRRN

B1: Bis-108+147-S102Q.H (bispecific antibody)
chain 1: EVQLVQSGAEVKKPGASVKVSCKASGYTFTSYVIHWVRQAPGQGLEWMGYFNPYNDGTKYNEEFKGRVTLTSDKSTSTAYMELRSLRSDDTAVYYCARGGVRRYFDVWGQGTTVTVSS
chain 2: EVQLVQSGAEVKKPGSSVKVSCKASGYTFTSYWMHWVRQAPGQCLEWMGNINPSSGATNYNEKFKSRVTLTVDKSTSTAYMELSSLRSEDTAVYYCARDRSQQYYFDYWGQGTTVTVSSGGGGSGGGGSGGGGSGGGGSDIVMTQSPDSLAVSLGERATINCKSSQSLLNSRSRKNYLAWYQQKPGQPPKLLIYWASTRESGVPDRFSGSGSGTDFTLTISSLQAEDVAVYYCTQSYTLRTFGCGTKVEIK
chain 3: DIQMTQSPSSLSASVGDRVTITCRASQDIGSNLNWLQQKPGKAIKRLIYATFGLDSGVPSRFSGSRSGTDFTLTISSLQPEDFATYYCQQYASFPYTFGGGTKVEIK
For B1, the Top signal [1] was 141 MFI, the “IC50 of T-cell dependent cytotoxicity on MM.1S cells” value (“IC50” for short) [2] was 2.78 nM and the “Top (%) target cell killing, MM.1S cells” value [2] was 131%. The EC50 [3] was 1.29 nM, the Top signal [3] was 1820 MFI and the “EC50, Jurkat-NFAT-Luciferase assay in the presence of MM.1S cells” value (“EC50, Jurkat-NFAT-Luciferase assay” for short) [4] was 0.26 nM. The “Top RLU, Jurkat-NFAT-Luciferase assay in the presence of MM.1S cells” value (“Top RLU, Jurkat-NFAT-Luciferase assay” for short) [4] was 358 RLU.

B2: Bis-108+147-S32T.L (bispecific antibody)
chain 1: EVQLVQSGAEVKKPGASVKVSCKASGYTFTSYVIHWVRQAPGQGLEWMGYFNPYNDGTKYNEEFKGRVTLTSDKSTSTAYMELRSLRSDDTAVYYCARGGVRRYFDVWGQGTTVTVSS
chain 2: EVQLVQSGAEVKKPGSSVKVSCKASGYTFTSYWMHWVRQAPGQCLEWMGNINPSSGATNYNEKFKSRVTLTVDKSTSTAYMELSSLRSEDTAVYYCARDRSSQYYFDYWGQGTTVTVSSGGGGSGGGGSGGGGSGGGGSDIVMTQSPDSLAVSLGERATINCKSSQSLLNTRSRKNYLAWYQQKPGQPPKLLIYWASTRESGVPDRFSGSGSGTDFTLTISSLQAEDVAVYYCTQSYTLRTFGCGTKVEIK
chain 3: DIQMTQSPSSLSASVGDRVTITCRASQDIGSNLNWLQQKPGKAIKRLIYATFGLDSGVPSRFSGSRSGTDFTLTISSLQPEDFATYYCQQYASFPYTFGGGTKVEIK
B2 was tested, and the Top signal [1] was 158 MFI, the “IC50” value [2] was 4.76 nM and the “Top (%) target cell killing, MM.1S cells” value [2] was 166%. The EC50 [3] was 2 nM, the Top signal [3] was 2040 MFI and the “EC50, Jurkat-NFAT-Luciferase assay” value [4] was 0.22 nM. For the same binder, the “Top RLU, Jurkat-NFAT-Luciferase assay” value [4] was 380 RLU.

B3: Bis-108+147-R100Q.H (bispecific antibody)
chain 1: EVQLVQSGAEVKKPGASVKVSCKASGYTFTSYVIHWVRQAPGQGLEWMGYFNPYNDGTKYNEEFKGRVTLTSDKSTSTAYMELRSLRSDDTAVYYCARGGVRRYFDVWGQGTTVTVSS
chain 2: EVQLVQSGAEVKKPGSSVKVSCKASGYTFTSYWMHWVRQAPGQCLEWMGNINPSSGATNYNEKFKSRVTLTVDKSTSTAYMELSSLRSEDTAVYYCARDQSSQYYFDYWGQGTTVTVSSGGGGSGGGGSGGGGSGGGGSDIVMTQSPDSLAVSLGERATINCKSSQSLLNSRSRKNYLAWYQQKPGQPPKLLIYWASTRESGVPDRFSGSGSGTDFTLTISSLQAEDVAVYYCTQSYTLRTFGCGTKVEIK
chain 3: DIQMTQSPSSLSASVGDRVTITCRASQDIGSNLNWLQQKPGKAIKRLIYATFGLDSGVPSRFSGSRSGTDFTLTISSLQPEDFATYYCQQYASFPYTFGGGTKVEIK
With B3 the Top signal [1] was 50.9 MFI, the “IC50” value [2] was 7.53 nM and the “Top (%) target cell killing, MM.1S cells” value [2] was 46.3%. For the same binder, the EC50 [3] was 1.87 nM, the Top signal [3] was 1830 MFI and the “EC50, Jurkat-NFAT-Luciferase assay” value [4] was 0.98 nM. For the same binder, the “Top RLU, Jurkat-NFAT-Luciferase assay” value [4] was 39.2 RLU.

From patent publication US20260193348A1 (ANTENGENE BIOLOGICS, published 2026)
